Measured values published in patent publication EP4324849A1 (Emergence Therapeutics AG, dated 2024).

B1: Ch-5A12.2 (parental chimeric 5A12.2 monoclonal anti-Nectin-4 antibody) (antibody, V domains shown)
VH: QIQLQQSGAELVKPGASVTLSCKTSGFTFNSMYISWLKQKPGQSLEWIAWIYAGTGGTRFNQKFTGKVQLTVDTSSSTAYMQFSSLTTDDSAIYYCAIRSGFVPMDYWGQGTSVTVSS
VL: SIVMTQTPKFLLVSAGDRVTITCKASQSVSNDVAWYQQKPGQSPKLLIYYASNRYTGVPDRFTGSGYGTDFTFTISTVQAEDLAVYFCQQDYSSPWTFGGGTKLEIK
B2: HA22 (Enfortumab), human monoclonal anti-Nectin-4 antibody (antibody, V domains shown)
VH: EVQLVESGGGLVQPGGSLRLSCAASGFTFSSYNMNWVRQAPGKGLEWVSYISSSSSTIYYADSVKGRFTISRDNAKNSLSLQMNSLRDEDTAVYYCARAYYYGMDVWGQGTTVTVSS
VL: DIQMTQSPSSVSASVGDRVTITCRASQGISGWLAWYQQKPGKAPKFLIYAASTLQSGVPSRFSGSGSGTDFTLTISSLQPEDFATYYCQQANSFPPTFGGGTKVEIK

Assays:
[1] = biological target: T1, his-tagged recombinant extra cellular domain of the Nectin-4 protein (R&D systems/Biotechne) (Homo sapiens (Human), UniProt Q96NY8 32-349); assay: BLI (Octet Red96), antibody on AHC sensor, His-Nectin-4 ECD as analyte, 1:1 model
T1 construct: Bought protein; also called His-Nectin-4; recombinant his-tagged Nectin-4 EC; not shown: His tag
T1 sequence: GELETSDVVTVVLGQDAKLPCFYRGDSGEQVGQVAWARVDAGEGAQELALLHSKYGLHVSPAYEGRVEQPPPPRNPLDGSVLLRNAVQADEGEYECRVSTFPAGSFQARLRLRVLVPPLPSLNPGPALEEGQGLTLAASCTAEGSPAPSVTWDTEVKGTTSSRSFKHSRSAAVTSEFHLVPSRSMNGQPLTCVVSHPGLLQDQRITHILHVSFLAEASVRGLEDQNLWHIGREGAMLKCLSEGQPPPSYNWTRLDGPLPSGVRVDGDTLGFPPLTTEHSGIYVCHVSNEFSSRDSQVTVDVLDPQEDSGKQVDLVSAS

[2] = biological target: T1, his-tagged recombinant extra cellular …; assay: BLI (Octet Red96), His-Nectin-4 ECD as analyte
[3] = biological target: T2, homodimer recombinant Fc protein, IgV domain of human Nectin-4 fused to human Fc domain (human, UniProt Q96NY8 32-146, limits assumed); assay: BLI (Octet Red96), antibody on FAB2G sensor, IgV-Fc homodimer as analyte, 1:2 bivalent analyte model
T2 construct: also called Fc-Nectin-4; Fc fusion IgV Nectin-4 domain; not shown: human Fc domain
T2 sequence: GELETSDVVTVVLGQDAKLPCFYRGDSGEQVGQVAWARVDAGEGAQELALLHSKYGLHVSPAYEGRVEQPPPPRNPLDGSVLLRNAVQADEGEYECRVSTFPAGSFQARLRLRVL

Binder | Kd [1] [nM] | Kd [2] [nM] | koff [2] [s⁻¹] | kon [2] [M⁻¹ s⁻¹] | Kd [3] [nM]
B1 | 4.2 | 3.4 | 0.000928 | 275000 | 5.3
B2 | 5.2 |  |  |  | 12.9
